Assay in all cases: cleavage_in_vitro
One series has as its system T1, LPG10150 (undetermined).
T1 sequence: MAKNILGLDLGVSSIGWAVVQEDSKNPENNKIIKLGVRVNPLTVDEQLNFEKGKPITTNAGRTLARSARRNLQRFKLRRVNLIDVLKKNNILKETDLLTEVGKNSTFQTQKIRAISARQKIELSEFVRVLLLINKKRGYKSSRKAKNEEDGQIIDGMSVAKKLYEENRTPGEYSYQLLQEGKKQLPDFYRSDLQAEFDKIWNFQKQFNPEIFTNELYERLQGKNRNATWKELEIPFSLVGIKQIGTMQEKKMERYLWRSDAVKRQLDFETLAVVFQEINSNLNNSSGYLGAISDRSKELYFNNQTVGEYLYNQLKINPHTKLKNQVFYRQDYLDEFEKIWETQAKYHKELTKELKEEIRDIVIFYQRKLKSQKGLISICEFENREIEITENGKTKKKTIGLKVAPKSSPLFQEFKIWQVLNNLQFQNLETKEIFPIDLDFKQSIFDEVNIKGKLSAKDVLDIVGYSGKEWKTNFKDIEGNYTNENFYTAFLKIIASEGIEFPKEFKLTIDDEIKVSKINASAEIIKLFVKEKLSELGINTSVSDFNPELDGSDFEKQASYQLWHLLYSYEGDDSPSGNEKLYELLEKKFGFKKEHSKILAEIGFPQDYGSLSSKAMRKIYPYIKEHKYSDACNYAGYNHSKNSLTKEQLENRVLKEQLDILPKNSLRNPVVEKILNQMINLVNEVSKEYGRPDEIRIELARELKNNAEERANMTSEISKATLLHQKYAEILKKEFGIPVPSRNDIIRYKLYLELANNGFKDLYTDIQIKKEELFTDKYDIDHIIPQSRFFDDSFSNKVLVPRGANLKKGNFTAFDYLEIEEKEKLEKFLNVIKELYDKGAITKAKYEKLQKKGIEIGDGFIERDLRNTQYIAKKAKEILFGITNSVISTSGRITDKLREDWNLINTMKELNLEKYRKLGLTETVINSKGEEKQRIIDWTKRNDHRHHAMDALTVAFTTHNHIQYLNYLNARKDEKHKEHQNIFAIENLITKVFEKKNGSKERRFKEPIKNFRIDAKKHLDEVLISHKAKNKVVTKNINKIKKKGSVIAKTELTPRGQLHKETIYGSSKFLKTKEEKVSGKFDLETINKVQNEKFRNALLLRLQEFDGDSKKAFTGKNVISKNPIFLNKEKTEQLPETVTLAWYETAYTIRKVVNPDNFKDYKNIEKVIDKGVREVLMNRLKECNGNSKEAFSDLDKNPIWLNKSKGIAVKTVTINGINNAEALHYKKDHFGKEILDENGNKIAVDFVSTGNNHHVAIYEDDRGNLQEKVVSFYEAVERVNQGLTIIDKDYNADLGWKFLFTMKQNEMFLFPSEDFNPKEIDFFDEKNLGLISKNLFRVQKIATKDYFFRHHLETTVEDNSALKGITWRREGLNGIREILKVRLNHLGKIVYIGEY
The settings on record: PAM SEQ ID 81.

In series [1] the test system is T2, LPG10139 (Bacillus megaterium).
T2 sequence: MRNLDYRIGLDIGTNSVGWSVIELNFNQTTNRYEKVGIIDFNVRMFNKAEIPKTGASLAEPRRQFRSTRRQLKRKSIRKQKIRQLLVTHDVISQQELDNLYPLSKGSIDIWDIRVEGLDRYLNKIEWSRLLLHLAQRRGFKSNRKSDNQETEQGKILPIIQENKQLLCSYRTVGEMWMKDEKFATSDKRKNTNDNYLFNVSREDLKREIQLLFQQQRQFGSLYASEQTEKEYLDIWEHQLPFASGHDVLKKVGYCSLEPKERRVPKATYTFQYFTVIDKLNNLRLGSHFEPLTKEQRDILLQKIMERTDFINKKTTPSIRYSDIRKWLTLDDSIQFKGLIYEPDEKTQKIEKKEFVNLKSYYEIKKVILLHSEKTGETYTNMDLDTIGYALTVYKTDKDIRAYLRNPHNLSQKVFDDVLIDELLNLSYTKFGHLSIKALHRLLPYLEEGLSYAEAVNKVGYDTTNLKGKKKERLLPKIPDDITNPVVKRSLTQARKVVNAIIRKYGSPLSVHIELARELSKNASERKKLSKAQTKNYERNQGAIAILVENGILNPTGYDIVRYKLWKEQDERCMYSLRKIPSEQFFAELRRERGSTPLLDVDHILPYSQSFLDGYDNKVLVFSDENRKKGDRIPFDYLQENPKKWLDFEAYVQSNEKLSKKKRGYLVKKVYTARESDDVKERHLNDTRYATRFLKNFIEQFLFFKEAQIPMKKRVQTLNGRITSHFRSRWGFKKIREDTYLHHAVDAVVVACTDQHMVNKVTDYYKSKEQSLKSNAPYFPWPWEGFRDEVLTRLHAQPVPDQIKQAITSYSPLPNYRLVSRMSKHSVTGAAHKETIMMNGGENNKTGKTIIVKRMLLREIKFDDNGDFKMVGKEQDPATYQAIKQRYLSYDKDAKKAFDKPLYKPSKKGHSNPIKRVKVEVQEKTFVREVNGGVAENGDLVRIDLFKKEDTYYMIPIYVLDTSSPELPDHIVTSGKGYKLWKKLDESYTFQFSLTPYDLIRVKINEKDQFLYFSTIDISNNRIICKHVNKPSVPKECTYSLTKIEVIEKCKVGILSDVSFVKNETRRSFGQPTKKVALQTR
The settings on record: PAM NNNNC.

The subject of the next series is T3, LPG10145 (undetermined).
T3 sequence: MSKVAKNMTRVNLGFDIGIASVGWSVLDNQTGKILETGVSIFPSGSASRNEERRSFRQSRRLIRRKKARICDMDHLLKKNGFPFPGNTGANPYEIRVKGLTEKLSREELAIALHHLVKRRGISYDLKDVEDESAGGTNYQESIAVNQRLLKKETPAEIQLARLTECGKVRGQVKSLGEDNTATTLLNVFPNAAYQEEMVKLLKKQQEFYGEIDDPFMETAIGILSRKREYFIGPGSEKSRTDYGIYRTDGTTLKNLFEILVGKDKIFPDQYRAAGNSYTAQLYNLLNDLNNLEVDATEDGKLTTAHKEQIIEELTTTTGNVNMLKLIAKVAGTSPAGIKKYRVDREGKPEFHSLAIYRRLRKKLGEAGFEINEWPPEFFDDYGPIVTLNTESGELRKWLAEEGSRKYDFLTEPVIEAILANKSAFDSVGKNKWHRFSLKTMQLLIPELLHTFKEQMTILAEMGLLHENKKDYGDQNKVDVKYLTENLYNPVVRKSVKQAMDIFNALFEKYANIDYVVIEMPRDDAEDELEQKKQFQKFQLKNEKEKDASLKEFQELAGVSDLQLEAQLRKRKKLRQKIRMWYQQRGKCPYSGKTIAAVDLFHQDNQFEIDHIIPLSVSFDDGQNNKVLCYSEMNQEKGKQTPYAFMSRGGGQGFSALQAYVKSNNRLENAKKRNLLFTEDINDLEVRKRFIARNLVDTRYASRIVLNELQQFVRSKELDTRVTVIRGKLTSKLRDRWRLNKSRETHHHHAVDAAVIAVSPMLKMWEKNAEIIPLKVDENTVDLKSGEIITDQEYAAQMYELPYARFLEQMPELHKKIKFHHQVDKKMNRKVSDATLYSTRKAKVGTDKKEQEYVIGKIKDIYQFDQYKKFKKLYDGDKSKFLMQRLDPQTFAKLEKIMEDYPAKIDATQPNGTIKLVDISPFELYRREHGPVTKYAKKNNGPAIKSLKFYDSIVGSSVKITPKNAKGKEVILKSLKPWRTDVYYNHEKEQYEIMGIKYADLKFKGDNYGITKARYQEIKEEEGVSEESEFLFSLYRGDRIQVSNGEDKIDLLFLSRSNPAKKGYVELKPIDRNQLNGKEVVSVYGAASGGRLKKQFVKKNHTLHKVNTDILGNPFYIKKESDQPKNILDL
Conditions: PAM NNGG; 37C 120 min.

“GUUGUGAAUUGCUUUAAAGAAAGCAAUUCACAAUAAGGAUUAUUCCGUUGUGAAAACAUCUAGCGCCUCGUCUAUCUACGGGGCAUUUU / GGACAGCAGCTTCCTATATCTCGTACAGGACCTC / GAGGTCCTGTACGAGATATAGGAAGCTGCTGTCC [LPG10150 sgRNA L1 ; Library 1 target AGGACCTC]” had an activity (% target strand cleaved) in the series on LPG10150 (undetermined) of 1.4.

In the case of “GUCAUAGUCCCAUCAUAUCCAUUGAAAGCAAUGGAUAUGAUGUUUCUAUGAUAAGGGCUCUCUAAGAGAGACCUGUGGCGUUGGGGAUCGCCUGCCCGUUUCGACGGGUGUCUCCCCAUUU / GATATAGACGTTGTGGCTGTTGTAGTAGGACCTC / GAGGTCCTACTACAACAGCCACAACGTCTATATC [LPG10139 sgRNA L2 ; Library 2 target AGGACCTC]”, in series [1], the activity (% target strand cleaved) was 7.3.

Sequence “GUUAUUGUACUCUCAAGGAAUCAGAAAGACUGAUUCCUUGAGAAUCUACAAUAAUAAGGCUUUAUGCCGAAAUUCCCACUCUUAACGGAGUGGGUUUU / GGACAGCAGCTTCCTATATCTCGTACACGGATTC / GAATCCGTGTACGAGATATAGGAAGCTGCTGTCC [LPG10145 sgRNA L1 ; Library 1 target ACGGATTC]” registered an activity (% target strand cleaved) in the series on LPG10145 (undetermined) of 92.9.

In turn, “GUCAUAGUCCCAUCAUAUCCAUUGAAAGCAAUGGAUAUGAUGUUUCUAUGAUAAGGGCUCUCUAAGAGAGACCUGUGGCGUUGGGGAUCGCCUGCCCGUUUCGACGGGUGUCUCCCCAUUU / GGACAGCAGCTTCCTATATCTCGTACAGGACCTC / GAGGTCCTGTACGAGATATAGGAAGCTGCTGTCC [LPG10139 sgRNA L1 ; Library 1 target AGGACCTC]” displayed an activity (% target strand cleaved) in series [1] of 4.4.

“GUUAUUGUACUCUCAAGGAAUCAGAAAGACUGAUUCCUUGAGAAUCUACAAUAAUAAGGCUUUAUGCCGAAAUUCCCACUCUUAACGGAGUGGGUUUU / GATATAGACGTTGTGGCTGTTGTAGTACGGATTC / GAATCCGTACTACAACAGCCACAACGTCTATATC [LPG10145 sgRNA L2 ; Library 2 target ACGGATTC]”: the activity (% target strand cleaved) with LPG10145 (undetermined) is 100.

In the case of “GUUGUGAAUUGCUUUAAAGAAAGCAAUUCACAAUAAGGAUUAUUCCGUUGUGAAAACAUCUAGCGCCUCGUCUAUCUACGGGGCAUUUU / GATATAGACGTTGTGGCTGTTGTAGTAGGACTTC / GAAGTCCTACTACAACAGCCACAACGTCTATATC [LPG10150 sgRNA L2 ; Library 2 target AGGACTTC]”, in the series on LPG10150 (undetermined), the activity (% target strand cleaved) turned out to be 31.8.

For the origin of these results see US20240376455.
